The source of these data is the supplement of paper PMC12042874.

± gives the uncertainty stated by the source.

A short description of the series: amyloid nucleation score (Sup35N fusion, yeast selection) (log enrichment); library NNK3; higher = more nucleation; inactive = no reads after selection. The gist of the method:
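Psi-negative yeast expressed Sup35N fused to peptides of 20 random codons. They were induced 24 hours with 100 μM copper sulfate, grown 7 days at 30°C without adenine and uracil, and their plasmid inserts from input and output were Illumina-sequenced. The nucleation score is the DiMSum log enrichment of output over input reads, centred on the mode score of non-aggregating sequences. Sequences with under 100 input reads were excluded.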
Regarding GIVALCRTCDNRRMRVSVGV, the amyloid nucleation score entry is “inactive”.
For GIYVVLNCISIFRLWLLSER, the amyloid nucleation score entry was “inactive”.
To GKFFMVSRYCESSSLRFESM belongs 1.15 ± 0.17.
Turning to GKIAVS, the amyloid nucleation score result is “inactive”.
Regarding GKINLVTCFVCLSTPFKHSL, the amyloid nucleation score was found to be 1.74 ± 0.067.
In the case of GKRNEWN, the amyloid nucleation score result is “inactive”.
For GKSRFRLRDAWWRLVTQQRR, the amyloid nucleation score entry is “inactive”.
The substance GLAASSTNAFTRHVLNRV yielded an amyloid nucleation score of 1.51 ± 0.13.
GLANNYGQYRITSRAKLPRQ: the amyloid nucleation score result was “inactive”.
In the case of GLAVNNRPDCEVSSLNRLLM, the amyloid nucleation score result was “inactive”.
Take GLCRLIDLKM: the amyloid nucleation score entry is “inactive”.
GLDYLLHAIYFECRQSGGSR yielded an amyloid nucleation score of 0.983 ± 0.17.
To GLIDLRVCEGRQFARTGSEM belongs 0.132 ± 0.36.
Regarding GLITWT, the amyloid nucleation score entry was “inactive”.
The entry for GLLRTLSQDMTCGRDAGQGN is “inactive”; for GLNMVWFVHLSVNV it is “inactive”; for GLNYS it is “inactive”.
With GLPNGGDPCLREVGSHLVTH, the amyloid nucleation score is -0.347 ± 1.4.
In the case of GLPNLASYSPPPINAKYIGD, the amyloid nucleation score entry was “inactive”.
GLSCDYCTNLVMCCDPQL yielded an amyloid nucleation score of 0.06 ± 0.25.
GLSDGWVGHRSYGSENVLLK: the amyloid nucleation score result is “inactive”.
For GLTVVSE, the amyloid nucleation score entry was “inactive”.
For GLVWCFCLCSITSYIMVILF, the amyloid nucleation score result is “inactive”.
The entry for GLYKNK is “inactive”.
Consider GMLPTGRYDRAYSFWGNWRR, for which the amyloid nucleation score was 1.08 ± 0.18.
Turning to GMSCWGSMQWNVL, the amyloid nucleation score came out at 0.766 ± 0.17.
Substance GMVNVARRKMSGLR displayed an amyloid nucleation score of 1.09 ± 0.16.
GNCSWRVYGISSGFLRHGAV: the amyloid nucleation score result was “inactive”.
The entry for GNFRSELITMVSCTMECRFL is “inactive”; for GNGNFIRY it is “inactive”.
Turning to GNIDCSTVFVSRNNCD, the amyloid nucleation score result is “inactive”.
Regarding GNIFRRYTVPSDANTKTWIY, the amyloid nucleation score result is “inactive”.
Regarding GNPRNMTVDDSDGKSFYFFY, the amyloid nucleation score entry was “inactive”.
For the substance GNVIMLLVTLASGCIPLSSE, the amyloid nucleation score result was “inactive”.
Consider GPAVWPKWVSLAKWYPSEI, for which the amyloid nucleation score result was “inactive”.
Consider GPDYHKHYRTYLPRTAFVGF, for which the amyloid nucleation score is 1.27 ± 0.17.
Turning to GPMNLMRSVRYALSRSYLLL, the amyloid nucleation score result was “inactive”.
As to GPPCDFCIRVSVCYTGSVNW, the amyloid nucleation score was 0.466 ± 0.39.
As for GPWLLRASNAHTWTRYGLVK, the amyloid nucleation score entry was “inactive”.
In the case of GPYNCFVH, the amyloid nucleation score result was “inactive”.
GQLYVMSRSDQARDSFELDA: the amyloid nucleation score entry was “inactive”.
Turning to GQPGQ, the amyloid nucleation score entry is “inactive”.
Consider GQRNVVSYTSNMNVPLFSFG, for which the amyloid nucleation score entry was “inactive”.
The entry for GRAHQFLISSFLSPGGPLMR is “inactive”; for GRIEKVVRNA it is “inactive”; for GRIFRLPCYVRLVLVNCRYG it is “inactive”.
With GRNCFGGARTAVGIRNTSPL, the amyloid nucleation score entry was “inactive”.
To GRNYFENVWIHRLYSSCLVM belongs 1.94 ± 0.068; to GRSMLMLRTYNM, -0.056 ± 0.78; to GRVMVWIFIFMMGGMQANLS, “inactive”.
Take GRWFVCVQSAWCDCGGDVCV: the amyloid nucleation score entry is “inactive”.
Regarding GRYAEETRYRVFLLIVMTRR, the amyloid nucleation score result is “inactive”.
In the case of GSAVVAAECIGKRC, the amyloid nucleation score entry is “inactive”.
For GSCRGVRWASRE, the amyloid nucleation score result is “inactive”.
To GSDLSWGRYKNSRFSSSMSA belongs “inactive”; to GSFITSNA, “inactive”.
GSGEVWWVGCRTFFKTG: the amyloid nucleation score entry is “inactive”.
In the case of GSGVNWFNIVVVS, the amyloid nucleation score result is “inactive”.
Regarding GSHVTKVLTFYSNVWVHFTG, the amyloid nucleation score entry is “inactive”.
GSISMFNKG: the amyloid nucleation score entry was “inactive”.
For the substance GSLGAMKNQTTASQGAEGAL, the amyloid nucleation score entry was “inactive”.
GSLMTRRDLRKSPILIYRDG showed an amyloid nucleation score of -0.819 ± 0.75.
As for GSRCSASPKNSESGRGKYFG, the amyloid nucleation score entry was “inactive”.
Turning to GSRGYGWFMKTFAYPRNCKN, the amyloid nucleation score entry is “inactive”.
Take GSSRPVVSLTSDLRRCVGKD: the amyloid nucleation score entry was “inactive”.
To GSSVCAR belongs “inactive”.
As for GSTTCLYTSIPCCAGVLS, the amyloid nucleation score was 0.449 ± 0.21.
On to GSVNLSVKSW, for which the amyloid nucleation score entry is “inactive”.
Consider GSVSPGNSILICFWFFWLLW, for which the amyloid nucleation score entry is “inactive”.
In the case of GSWDVKLSF, the amyloid nucleation score entry is “inactive”.
To GSWSKNMILHTLDLDCVAIV belongs “inactive”.
In the case of GTDWLDMVILGEPFYMYLST, the amyloid nucleation score entry is “inactive”.
Turning to GTGGSVRPHCEFSLRSSYMV, the amyloid nucleation score result is “inactive”.
On to GTGRSECNCMQGTHGLGICS, for which the amyloid nucleation score was -0.184 ± 1.5.
GTIRVYIKTNDATVIGEHHA: the amyloid nucleation score was found to be 1.21 ± 0.13.
As to GTLCVGPLKASCETGKLKFF, the amyloid nucleation score entry was “inactive”.
In the case of GTLTVYNRDFRDIGDFKIYA, the amyloid nucleation score result was “inactive”.
Take GTMSNYPNGFSMSSSYFSTY: the amyloid nucleation score result is “inactive”.
To GTNDSDFESWNVFKCINCLA belongs “inactive”; to GTQRVAIEDSGVIR, “inactive”; to GTSICDVKFAPLYSE, “inactive”.
In the case of GTTLHYLSRREYGFTGRILF, the amyloid nucleation score entry was “inactive”.
As to GTTYTAHYAWSTVGDIWSLH, the amyloid nucleation score result is “inactive”.
For GTVGHYRLST, the amyloid nucleation score result was “inactive”.
GTYSTVKFCLCMWVILAPSS: the amyloid nucleation score entry was “inactive”.
GVCASNQLALKCTYVPMSVR: the amyloid nucleation score result was “inactive”.
In the case of GVDDSLLKMRETCSRFGLTV, the amyloid nucleation score entry is “inactive”.
For the substance GVGNPGWAVLM, the amyloid nucleation score entry was “inactive”.
For GVHVVYCVRFSEGIVYTSGF, the amyloid nucleation score came out at 0.906 ± 0.2.
The entry for GVKYVDNIGLRGWFFCRHAV is “inactive”; for GVLLKVSR it is “inactive”.
Regarding GVLLTYSCSRQLSPDFNCFC, the amyloid nucleation score was 1.62 ± 0.073.
The entry for GVNIRCLRDDDSRLLKERSC is “inactive”.
GVPIWCEKYKLILQKNWLFK: the amyloid nucleation score entry was “inactive”.
The entry for GVRLNVDRAVKVARELFH is “inactive”; for GVSEAMCVILFYFYWKWVFP it is “inactive”.
